# Results taken from publication PMC6053506.
# Columns and labels:
# [1] = molecular target: AQP4-IgG (rAb-53) with the Fc mutation K322A (human); assay: BLI; Octet K2, 30°C; antibody (6 µg/ml) loaded on anti-human Fab-CH1 biosensors; mouse FcRn-b2m in solution; PBS pH 7.2 for dilution, association and dissociation
# [2] = molecular target: AQP4-IgG (rAb-53) with the Fc mutation N297D (human); assay: as above
# [3] = molecular target: AQP4-IgG (rAb-53) with the Fc mutation P331G (human); assay: as above
# AQP4-IgG (rAb-53) with the Fc mutation P331G (human), sequence (heavy, as listed by the source, chain 1 of 2): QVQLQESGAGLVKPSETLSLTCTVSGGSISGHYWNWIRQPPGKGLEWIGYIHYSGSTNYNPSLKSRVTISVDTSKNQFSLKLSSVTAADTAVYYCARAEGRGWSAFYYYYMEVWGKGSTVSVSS
# AQP4-IgG (rAb-53) with the Fc mutation P331G (human), sequence (light, as listed by the source, chain 2 of 2): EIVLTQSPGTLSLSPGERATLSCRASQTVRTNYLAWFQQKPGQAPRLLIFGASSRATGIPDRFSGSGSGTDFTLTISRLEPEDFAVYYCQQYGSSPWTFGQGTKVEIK
# [4] = molecular target: AQP4-IgG (rAb-53) with the Fc mutation K322A (human); assay: BLI; Octet K2, 30°C; antibody (6 µg/ml) loaded on anti-human Fab-CH1 biosensors; mouse FcRn-b2m in solution, 2,000 to 0 nM; 100 mM sodium phosphate, 150 mM NaCl, 0.05% Tween-20, pH 6; 60 s association, 60 s dissociation
# [5] = molecular target: AQP4-IgG (rAb-53) with the Fc mutation N297D (human); assay: as above
# [6] = molecular target: isotype control antibody directed against measles virus (2B4-IgG) (human); assay: as above
# [7] = molecular target: human monoclonal AQP4-IgG (rAb-53), wild type (human); assay: as above
# human monoclonal AQP4-IgG (rAb-53), wild type (human), sequence (heavy, as listed by the source, chain 1 of 2): as the sequence (heavy, as listed by the source, chain 1 of 2) above
# human monoclonal AQP4-IgG (rAb-53), wild type (human), sequence (light, as listed by the source, chain 2 of 2): as the sequence (light, as listed by the source, chain 2 of 2) above
# [8] = molecular target: AQP4-IgG (rAb-53) with the Fc mutation D270A (human); assay: as above
# AQP4-IgG (rAb-53) with the Fc mutation D270A (human), sequence (heavy, as listed by the source, chain 1 of 2): as the sequence (heavy, as listed by the source, chain 1 of 2) above
# AQP4-IgG (rAb-53) with the Fc mutation D270A (human), sequence (light, as listed by the source, chain 2 of 2): as the sequence (light, as listed by the source, chain 2 of 2) above
# [9] = molecular target: AQP4-IgG (rAb-53) with the Fc mutation P329A (human); assay: as above
# AQP4-IgG (rAb-53) with the Fc mutation P329A (human), sequence (heavy, as listed by the source, chain 1 of 2): as the sequence (heavy, as listed by the source, chain 1 of 2) above
# AQP4-IgG (rAb-53) with the Fc mutation P329A (human), sequence (light, as listed by the source, chain 2 of 2): as the sequence (light, as listed by the source, chain 2 of 2) above
# [10] = molecular target: AQP4-IgG (rAb-53) with the Fc mutation P331G (human); assay: as above
# AQP4-IgG (rAb-53) with the Fc mutation K322A (human), sequence (heavy, as listed by the source, chain 1 of 2): as the sequence (heavy, as listed by the source, chain 1 of 2) above
# AQP4-IgG (rAb-53) with the Fc mutation K322A (human), sequence (light, as listed by the source, chain 2 of 2): as the sequence (light, as listed by the source, chain 2 of 2) above
# AQP4-IgG (rAb-53) with the Fc mutation N297D (human), sequence (heavy, as listed by the source, chain 1 of 2): as the sequence (heavy, as listed by the source, chain 1 of 2) above
# AQP4-IgG (rAb-53) with the Fc mutation N297D (human), sequence (light, as listed by the source, chain 2 of 2): as the sequence (light, as listed by the source, chain 2 of 2) above
substance,measurement,setting,value
mouse FcRn-Beta-2 microglobulin heterodimer protein (from UniProt Q61559 22-297; P01887 21-119) (complex),Req,[1],0.198
same,Req,[2],0.136
same,Req,[3],0.151
same,Req,[4],0.987
same,Req,[5],1
same,Req,[6],0.76
same,Req,[7],0.851
same,Req,[8],0.43
same,Req,[9],1.16
same,Req,[10],0.915
